Test results reported in patent US11325966.

Legend:
Assay in all cases: cell-based or functional assay
[1] = molecular target: HIV-1 envelope (Env) of pseudovirus T278-50 (HIV-1)
[2] = molecular target: HIV-1 envelope (Env) of pseudovirus 3415.v1.c1 (HIV-1)
[3] = molecular target: HIV-1 envelope (Env) of pseudovirus 6041.v3.c23 (HIV-1)
[4] = molecular target: HIV-1 envelope (Env) of pseudovirus 3301.v1.c24 (HIV-1)
[5] = molecular target: HIV-1 envelope (Env) of pseudovirus 3817.v2.c59 (HIV-1)
[6] = molecular target: HIV-1 Env of pseudovirus C3347.H1 (HIV-1)
JR-CSF R327A (HIV-1) = JR-CSF R327A (HIV-1) (UniProt P20871)
[7] = molecular target: BG505 (T332N) N386A (HIV-1)
[8] = molecular target: HIV-1 Env of pseudovirus Ce703010054_2A2 (HIV-1)
[9] = molecular target: HIV-1 Env of pseudovirus Q461.e2 (HIV-1)
[10] = molecular target: HIV-1 Env of pseudovirus AC10.0.29 (HIV-1)
[11] = molecular target: HIV-1 Env of pseudovirus HIV-0013095-2.11 (HIV-1)
[12] = molecular target: HIV-1 Env of pseudovirus 3103.v3.c10 (HIV-1)
[13] = molecular target: HIV-1 Env of pseudovirus HIV-16055-2.3 (HIV-1)
[14] = molecular target: HIV-1 Env of pseudovirus CNE17 (HIV-1)
[15] = molecular target: HIV-1 Env of pseudovirus CNE30 (HIV-1)
[16] = molecular target: HIV-1 Env of pseudovirus TRJO4551.58 (HIV-1)
[17] = molecular target: HIV-1 Env of pseudovirus WEAU_d15_410_787 (HIV-1)
[18] = molecular target: HIV-1 Env of pseudovirus X1254_c3 (HIV-1)
[19] = molecular target: HIV-1 Env of pseudovirus ZM197M.PB7 (HIV-1)
[20] = molecular target: HIV-1 Env of pseudovirus Du422.1 (HIV-1)
[21] = molecular target: HIV-1 Env of pseudovirus T257-31 (HIV-1)
[22] = molecular target: HIV-1 Env of pseudovirus 1056_10_TA11_1826 (HIV-1)
[23] = molecular target: HIV-1 Env of pseudovirus ZM233M.PB6 (HIV-1)
[24] = molecular target: HIV-1 Env of pseudovirus 9004SS_A3_4 (HIV-1)
[25] = molecular target: HIV-1 Env of pseudovirus 1394C9G1(Rev-) (HIV-1)
[26] = molecular target: HIV-1 Env of pseudovirus 191955_A11 (HIV-1)
[27] = molecular target: HIV-1 Env of pseudovirus ZM135M.PE10a (HIV-1)
[28] = molecular target: HIV-1 Env of pseudovirus 191821_E6_1 (HIV-1)
[29] = molecular target: HIV-1 Env of pseudovirus 246F C1G (HIV-1)
[30] = molecular target: HIV-1 Env of pseudovirus 620345.c01 (HIV-1)
[31] = molecular target: HIV-1 Env of pseudovirus MS208.A1 (HIV-1)
[32] = molecular target: HIV-1 Env of pseudovirus Ce1176_A3 (HIV-1)
[33] = molecular target: HIV-1 Env of pseudovirus Q259.d2.17 (HIV-1)
[34] = molecular target: HIV-1 Env of pseudovirus 6535.3 (HIV-1)
[35] = molecular target: HIV-1 Env of pseudovirus CAAN5342.A2 (HIV-1)
[36] = molecular target: HIV-1 Env of pseudovirus 89-F1_2_25 (HIV-1)
[37] = molecular target: HIV-1 Env of pseudovirus CNE8 (HIV-1)
[38] = molecular target: HIV-1 Env of pseudovirus Ce0682_E4 (HIV-1)
[39] = molecular target: HIV-1 Env of pseudovirus 211-9 (HIV-1)

## BG1 (antibody)
[1]
  IC50 in TZM-bl assay: 19.3 µg/mL
  IC80 in TZM-bl assay: > 30 µg/mL
[2]
  IC50 in TZM-bl assay: 14.4 µg/mL
  IC80 in TZM-bl assay: > 30 µg/mL
[3]
  IC50 in TZM-bl assay: 6.75 µg/mL
  IC80 in TZM-bl assay: 16.6 µg/mL
[4]
  IC50 in TZM-bl assay: > 30 µg/mL
  IC80 in TZM-bl assay: > 30 µg/mL
[5]
  IC50 in TZM-bl assay: 11.1 µg/mL
  IC80 in TZM-bl assay: > 30 µg/mL

## PGT121 (antibody)
[6]
  IC50 in TZM-bl assay: > 10 µg/mL
  IC80 in TZM-bl assay: > 10 µg/mL

## 354BG8 (antibody)
JR-CSF R327A (HIV-1)
  IC50 in TZM-bl assay: 0.005 µg/mL
[7]
  IC50 in TZM-bl assay: 0.004 µg/mL

B1: 10-1074 (antibody, V domains shown)
VH: QVQLQESGPGLVKPSETLSVTCSVSGDSMNNYYWTWIRQSPGKGLEWIGYISDRESATYNPSLNSRVVISRDTSKNQLSLKLNSVTPADTAVYYCATARRGQRIYGVVSFGEFFYYYSMDVWGKGTTVTVSS
VL: SYVRPLSVALGETARISCGRQALGSRAVQWYQHRPGQAPILLIYNNQDRPSGIPERFSGTPDINFGTRATLTISGVEAGDEADYYCHMWDSRSGFSWSFGGATRLTVL
[8]
  IC50 in TZM-bl assay: > 10 µg/mL
  IC80 in TZM-bl assay: > 10 µg/mL
[9]
  IC50 in TZM-bl assay: > 10 µg/mL
  IC80 in TZM-bl assay: > 10 µg/mL
[10]
  IC50 in TZM-bl assay: 0.015 µg/mL
  IC80 in TZM-bl assay: 0.043 µg/mL
[11]
  IC50 in TZM-bl assay: > 10 µg/mL
  IC80 in TZM-bl assay: > 10 µg/mL
[12]
  IC50 in TZM-bl assay: 0.024 µg/mL
  IC80 in TZM-bl assay: 0.061 µg/mL
[13]
  IC50 in TZM-bl assay: > 10 µg/mL
  IC80 in TZM-bl assay: > 10 µg/mL
[14]
  IC50 in TZM-bl assay: 1.18 µg/mL
  IC80 in TZM-bl assay: 4.85 µg/mL
[15]
  IC50 in TZM-bl assay: 0.261 µg/mL
  IC80 in TZM-bl assay: 0.678 µg/mL
[16]
  IC50 in TZM-bl assay: 0.057 µg/mL
  IC80 in TZM-bl assay: 0.218 µg/mL
[17]
  IC50 in TZM-bl assay: 0.031 µg/mL
  IC80 in TZM-bl assay: 0.112 µg/mL
[18]
  IC50 in TZM-bl assay: 0.063 µg/mL
  IC80 in TZM-bl assay: 0.239 µg/mL
[19]
  IC50 in TZM-bl assay: > 10 µg/mL
  IC80 in TZM-bl assay: > 10 µg/mL
[20]
  IC50 in TZM-bl assay: 0.047 µg/mL
  IC80 in TZM-bl assay: 0.113 µg/mL
[21]
  IC50 in TZM-bl assay: > 10 µg/mL
  IC80 in TZM-bl assay: > 10 µg/mL
[22]
  IC50 in TZM-bl assay: 0.038 µg/mL
  IC80 in TZM-bl assay: 0.168 µg/mL
[23]
  IC50 in TZM-bl assay: 0.058 µg/mL
  IC80 in TZM-bl assay: 0.371 µg/mL
[24]
  IC50 in TZM-bl assay: 0.012 µg/mL
  IC80 in TZM-bl assay: 0.032 µg/mL
[25]
  IC50 in TZM-bl assay: 0.031 µg/mL
  IC80 in TZM-bl assay: 0.093 µg/mL
[26]
  IC50 in TZM-bl assay: > 10 µg/mL
  IC80 in TZM-bl assay: > 10 µg/mL
[27]
  IC50 in TZM-bl assay: 0.061 µg/mL
  IC80 in TZM-bl assay: 0.263 µg/mL
[28]
  IC50 in TZM-bl assay: > 10 µg/mL
  IC80 in TZM-bl assay: > 10 µg/mL
[29]
  IC50 in TZM-bl assay: 0.035 µg/mL
  IC80 in TZM-bl assay: 0.119 µg/mL
[30]
  IC50 in TZM-bl assay: > 10 µg/mL
  IC80 in TZM-bl assay: > 10 µg/mL
[31]
  IC50 in TZM-bl assay: > 10 µg/mL
  IC80 in TZM-bl assay: > 10 µg/mL
[32]
  IC50 in TZM-bl assay: 0.022 µg/mL
  IC80 in TZM-bl assay: 0.07 µg/mL
[33]
  IC50 in TZM-bl assay: > 10 µg/mL
  IC80 in TZM-bl assay: > 10 µg/mL
[34]
  IC50 in TZM-bl assay: 0.007 µg/mL
  IC80 in TZM-bl assay: 0.022 µg/mL
[35]
  IC50 in TZM-bl assay: 0.005 µg/mL
  IC80 in TZM-bl assay: 0.019 µg/mL
[36]
  IC50 in TZM-bl assay: > 10 µg/mL
  IC80 in TZM-bl assay: > 10 µg/mL
[37]
  IC50 in TZM-bl assay: > 10 µg/mL
  IC80 in TZM-bl assay: > 10 µg/mL
[38]
  IC50 in TZM-bl assay: > 10 µg/mL
  IC80 in TZM-bl assay: > 10 µg/mL
[39]
  IC50 in TZM-bl assay: 0.065 µg/mL
  IC80 in TZM-bl assay: 0.403 µg/mL
